The values below come from PMC3059804.

Experiment in all cases: enzyme inhibition kinetics
For assay [1], the target named is human LSD1-CoREST complex (LSD1 residues 171-836 with CoREST residues 308-440) (human) (UniProt O60341).
Assay [2] shares this target. The source holds these as a separate data set.
Assay [3] has as its target recombinant mouse LSD2 (mouse) (UniProt Q8CIG3).
For assay [4], the target named is human LSD1-CoREST complex (LSD1 residues 171-836 with CoREST residues 308-440) (human) (UniProt O60341). This is another data set of the same source.

Where two headings read alike, the source gives them in different places.

One may read the Ki as the equilibrium dissociation constant of an inhibitor or competing ligand from its target. For the substance “20-residue peptide corresponding to the N-terminal residues of human SNAIL1”, the Ki came out at 0.2 µM in assay [1], 220 µM in assay [2], 2.22 µM in assay [3] and 210 µM in assay [4].
